Reference: patent US20250154215A1, “PHARMACEUTICAL COMPOSITION FOR TREATING COLITIS OR COLORECTAL CANCER COMPRISING COLON-TARGETED S100A8/A9-DERIVED SPECIFIC PEPTIDE” (Industry-University Cooperation Foundation Hanyang …, priority 2023, published 2025)
Entries after “also recorded” stand apart in the source; their conditions may differ.

Legend:
[1] = design: species or system mice; conditions: mouse, in vivo
Procedure: (§1) FIGS. 6A-6D show the effect of rCT-S100A8/A9 peptide on colon targeting. […] Mice were exposed to 3% DSS for six days and evaluated on day 6 (left). For IB with αITGA6, αITGB1, or αActin, multiple organ harvests were used and ITGA6+ or ITGB1+ cell numbers were analyzed through FACS. […] Intraperitoneal administration of rCT-S100A8/9 conjugated with Cy5.5 for one hour and colon harvest. Colon harvests were used for IB including αITGA6, αITGB1, or αActin and ITGA6+ or ITGB1+ cell numbers were analyzed through FACS. […] Mice were treated with 3% DSS for six days and administered 1, 2, or 3 doses of Texas Red conjugated with rCT-S100A8/9. Colons were harvested in a time-dependent manner and analyzed for Texas Red+ cell numbers through FACS. Data is representative of three independent experiments with similar results. Data is shown as the mean±SD of three experiments;
S100A8 or S100A9 peptides or rCT-S100A8/9 was conjugated to Texas Red using the Texas Red® Conjugation Kit (Fast)-Lightning-Link (Abcam) to quantitatively measure cellular uptake in macrophages and pharmacodynamics in a colitis model. Cells were washed thoroughly and quickly with pulse spins and immediately acquired for analysis on FACSCalibur (BD Biosciences, San Jose, CA, USA). Data was plotted using CellQuest software (BD Biosciences) and analyzed using FlowJo software (Tree Star, Ashland, OR, USA). […]

[2] = DSS-induced acute colitis mouse model; format: in vivo, mice
Procedure: DSS-induced acute or chronic colitis and AOM/DSS CRC mouse models were prepared using 6-week-old C57BL/6 female mice (Samtako Bio, Osan, Korea). To assess the induction of acute colitis, mice were exposed ad libitum to 3% (w/v) dextran sodium sulfate (molecular weight: 36-50 kDa, MP Biomedicals, Santa Ana, CA, USA) dissolved in drinking water. The mouse models are illustrated in FIGS. 7A, 5E, and 6A. DSS solutions were prepared every two days. […] The humane endpoint for weight loss (requiring euthanasia) was 20% (compared to the original body weight of an animal). Without an approved exception request, body weight loss could not exceed 20%.
The clinical score of colitis was obtained by measuring body weight, fecal occult blood or total blood loss, and stool consistency every other day during the induction of colitis. The clinical score were assessed by two trained investigators who were randomly selected. For immunohistochemical analysis of tissue sections, mouse distal colon tissues were fixed in 10% formalin and embedded in paraffin. Paraffin sections ([…]) were cut and stained with H&E. Histopathological scoring was performed by a certified pathologist (Min-Kyung Kim, Department of Pathology, Kim Min-Kyung Pathology Clinic, Seoul, Korea) who scored each organ section independently without prior knowledge of the treatment group.
The therapeutic efficacy of rCT-S100A8/A9 on DSS-induced acute colitis in mice was evaluated. After colitis was induced by DSS, the mice were intraperitoneally injected with rCT-S100A8/A9 (50 μg/kg) once daily for 6, 7, or 8 days, and sacrificed on day 12 to evaluate the effect of treatment frequency (FIG. 7A, top). […] Next, the length of the colon, which is an indicator of colitis, was evaluated.

[3] = Colon targeting of Cy5.5-conjugated protein in DSS-induced acute colitis mice (FACS); conditions: mouse, in vivo, ip
Procedure: as §1
Fourth, to further investigate the physiological significance of rCT-S100A8/A9 in inflammatory colitis, a DSS-induced colitis mouse model was used (FIG. 6). […] Next, to evaluate the specificity of rCT-S100A8/A9, ITGA6- or ITGB1-knockdown mice were generated by sh-lentivirus transduction. […] Finally, the pharmacodynamics of rCT-S100A8/A9 were evaluated, and according to the FACS analysis, 50% of the rCT-S100A8/A9 was retained in the colon when administered for three consecutive days to the mice with DSS-induced acute colitis (FIG. 6D).

[4] = system: OxaR CRC cells (HT29, HCT116 and SW480); assay: WST-8-based cell viability assay in parental and drug-resistant CRC cell lines
Source text: To establish a CRC cell model resistant to oxaliplatin, doxorubicin, or 5-FU, HT29, HT116, and SW480 cells were exposed to progressively increasing concentrations of oxaliplatin, doxorubicin, or 5-FU. The established oxaliplatin, doxorubicin, and 5-FU resistant cells were named OxaR, DoxR, and 5-FuR cells, respectively.
To confirm the inhibitory effect of rCT-S100A8/A9 on oxaliplatin resistance, the present inventors performed a water-soluble tetrazolium-8 (WST-8)-based cell viability assay using parental cells of three CRC cell lines, HT29, HCT-116 and SW480, and their corresponding oxaliplatin-resistant (OxaR) cell lines. OxaR CRC cells (HT29, HCT116 and SW480) were established by long-term exposure of CRC cells to oxaliplatin as described in Example 1.

[5] = format: in vitro ADME; conditions: human, 0.5 h
Procedure: Human plasma of each culture tube treated with S100A8/A9 peptide (10 μM) or rCT-S100A8/A9 protein (10 μg/mL) was incubated at 37° C. for 0, 30, and 120 minutes, respectively. At the designated time, an acetonitrile internal standard solution of chlorpropamide was added to each culture tube, and the resulting mixture was shaken with a vortex mixer for five minutes and centrifuged for additional five minutes (14,000 rpm, 4° C.). The supernatant was then injected into an LC-MS/MS system to analyze the plasma stability of the tested substances.

[6] = vs rVehicle or rCT-treated group

B1: TWYKIAFQRNRKTWYKIAFQRNRKTWYKIAFQRNRKTWYKIAFQRNRKTWYKIAFQRNRKGGFLVIKGGAHKSHKGGITIITFGGGHHGGFLVIKGGAHKSHKGGITIITFGGGHHGGFLVIKGGAHKSHKGGITIITFGGGHHGG (protein)
chain: TWYKIAFQRNRKTWYKIAFQRNRKTWYKIAFQRNRKTWYKIAFQRNRKTWYKIAFQRNRKGGFLVIKGGAHKSHKGGITIITFGGGHHGGFLVIKGGAHKSHKGGITIITFGGGHHGGFLVIKGGAHKSHKGGITIITFGGGHHGG
modifications: N-terminal 6xHis tag
[1]
  retained in the colon: 50%
[2]; 50 μg/kg i.p. once daily, 3% DSS
  survival rate: significantly increased
[2]; 3% DSS acute colitis
  colon damage (H&E staining): reduced according to the frequency of rCT-S100A8/A9 treatment; also recorded: alleviated
  colon length: recovered in proportion to the number of rCT-S100A8/A9 treatments
[2]; DSS colitis
  levels of pro-inflammatory cytokines (TNF-α, IL-1β, IL-6, IL-18) and MPO activity in colonic homogenates: significantly reduced; also recorded: successfully reduced the secretion of IL-1β and IL-18
[2]; colon co-IP, DSS treatment
  TLR4 (or RAGE)-S100A8 (or S100A9) and NLRP3-ASC interactions in colon: decreased
[2]; [6]
  body weight loss: less body weight loss
  colitis scores: lower colitis scores
[3]
  tissue targeting: specifically targeted the colon tissues of the mice with acute colitis
[4]; 24 h cell viability
  efficacy in doxorubicin-resistant (DoxR) and 5-fluorouracil-resistant (5-FuR) CRC cells: exhibited efficacy against multidrug resistance
[4]; HT29, HCT116, SW480 OxaR, 24 hours
  cell viability of OxaR CRC cells: reduced the viability of OxaR CRC cells
[5]
  plasma stability, remaining: 100%
